B1: Mothers against decapentaplegic homolog 2 (Homo sapiens), Q15796 (parent)
chain: MSSILPFTPPVVKRLLGWKKSAGGSGGAGGGEQNGQEEKWCEKAVKSLVKKLKKTGRLDELEKAITTQNCNTKCVTIPSTCSEIWGLSTPNTIDQWDTTGLYSFSEQTRSLDGRLQVSHRKGLPHVIYCRLWRWPDLHSHHELKAIENCEYAFNLKKDEVCVNPYHYQRVETPVLPPVLVPRHTEILTELPPLDDYTHSIPENTNFPAGIEPQSNYIPETPPPGYISEDGETSDQQLNQSMDTGSPAELSPTTLSPVNHSLDLQPVTYSEPAFWCSIAYYELNQRVGETFHASQPSLTVDGFTDPSNSERFCLGLLSNVNRNATVEMTRRHIGRGVRLYYIGGEVFAECLSDSAIFVQSPNCNQRYGWHPATVCKIPPGCNLKIFNNQEFAALLAQSVNQGFEAVYQLTRMCTIRMSFVKGWGAEYRRQTVTSTPCWIELHLNGPLQWLDKVLTQMGSPSVRCSSMS
partner: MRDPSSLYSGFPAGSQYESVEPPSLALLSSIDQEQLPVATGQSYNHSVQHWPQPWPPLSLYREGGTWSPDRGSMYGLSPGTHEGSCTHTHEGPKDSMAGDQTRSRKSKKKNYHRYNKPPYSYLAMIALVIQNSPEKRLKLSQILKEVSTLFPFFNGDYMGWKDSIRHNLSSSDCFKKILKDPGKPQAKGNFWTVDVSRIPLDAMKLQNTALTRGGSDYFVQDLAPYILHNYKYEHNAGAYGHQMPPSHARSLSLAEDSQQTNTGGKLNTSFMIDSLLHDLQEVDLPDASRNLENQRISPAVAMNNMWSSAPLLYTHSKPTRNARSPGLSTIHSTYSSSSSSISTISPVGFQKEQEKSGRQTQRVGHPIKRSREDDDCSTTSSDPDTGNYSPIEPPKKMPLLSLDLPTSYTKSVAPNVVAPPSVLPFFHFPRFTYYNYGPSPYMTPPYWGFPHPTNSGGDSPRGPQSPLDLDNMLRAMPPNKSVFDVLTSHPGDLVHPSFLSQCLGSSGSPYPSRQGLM

Variants of: B1
Details: with foxh1_xenla foxh1, P70056

| effect of a mutation on the interaction | Variant |
| --- | --- |
| disrupting interaction | S464A;S465A;S467A |
| disrupting interaction | D450E |

Reference: IntAct's records for PubMed 9389648
